Assays:
native gel or EMSA = molecular target: the molecule itself; assay: native gel or EMSA
[1] = molecular target: taxol-stabilized microtubules of unlabeled porcine brain tubulin (porcine) (UniProt P02550); assay: co-sedimentation

Binder	binding result (native gel or EMSA)	Kd [1] [µM]
full-length SPR2-GFP protein (natural protein, Arabidopsis thaliana, UniProt Q9T041 1-864, looked up) MSTPTTSGSAAKPTRPARSSSLATRSCSNSGSLTSFQAMVELKQKILTSISKLADRDTYQIAVEDLEKTIQSLTPETLPMFLNCLYDSCSDPKPAVKKECLHLLSYVCSLHCDSTAAHLTKIIAQIVKRLKDSDSGVRDACRDTIGALSGIYLKGKEEGTNTGSASLAVGLFVKPLFEAMGEQNKVVQSGASMCMARMVESAASPPVTSFQKLCPRICKLLSNSSFLAKASLLPVVSSLSQVGAIAPQSLESLLESIHDCLGSTDWVTRKAAAETLTALASHSSGLIKEKTDSTITVLETCRFDKIKPVRESVTEALQLWKKISGKYVDGASDDSKLSASEQLGSEKNGEKRSNLADLMKKEASDGSTLSPDSASKGKGCFPEKAVGLLKKKAPVLSDKDFNPEFFQRLERRQSVEVVVPRRCKNNDEEESGLDDLNAMGSSNRLKNTQADDKQVKGRFDGNGSQARTSGDDKAGVVNGKETPGHHAPVSNTDNQSEGSFTSNRGNWSAIQRQLLQLERQQTNLMNMLQEFIGGSHDSMVTLEGRVRGLERIVEDMARDLSISSGRRANLTAGFGKYNSFANYPTGKYNGRAPGERGSQTDGAMRGRMWNSDMADDWFIPPHAASRNGQAGPRRSPRSEQYENEHMGNGRRGWDNKASGTIRFGEGPSARSVWQASKDEATLEAIRVAGEDGAVPRPTRVAVAPEAEAMGDDDNEGQERDPIWVSWSNAMHSLRVGDIDAAYAEVLCAGDQHLVIKLMDKTGPSLDQMSNEIANEALNFISQFLLDHSLYDICLSWSQQLLELVLQDGADTFGVPMELKTEILYNLQDACSTMDPPEDWEGPAPEQLVVQLASVWEIDLQQFDK	binds	
SPR2 (38-570)-GFP (domain or fragment, Arabidopsis thaliana, UniProt Q9T041 38-570, looked up) AMVELKQKILTSISKLADRDTYQIAVEDLEKTIQSLTPETLPMFLNCLYDSCSDPKPAVKKECLHLLSYVCSLHCDSTAAHLTKIIAQIVKRLKDSDSGVRDACRDTIGALSGIYLKGKEEGTNTGSASLAVGLFVKPLFEAMGEQNKVVQSGASMCMARMVESAASPPVTSFQKLCPRICKLLSNSSFLAKASLLPVVSSLSQVGAIAPQSLESLLESIHDCLGSTDWVTRKAAAETLTALASHSSGLIKEKTDSTITVLETCRFDKIKPVRESVTEALQLWKKISGKYVDGASDDSKLSASEQLGSEKNGEKRSNLADLMKKEASDGSTLSPDSASKGKGCFPEKAVGLLKKKAPVLSDKDFNPEFFQRLERRQSVEVVVPRRCKNNDEEESGLDDLNAMGSSNRLKNTQADDKQVKGRFDGNGSQARTSGDDKAGVVNGKETPGHHAPVSNTDNQSEGSFTSNRGNWSAIQRQLLQLERQQTNLMNMLQEFIGGSHDSMVTLEGRVRGLERIVEDMARDLSISSGRRANL	binds	
SPR2(1-500)-GFP (domain or fragment) MSTPTTSGSAAKPTRPARSSSLATRSCSNSGSLTSFQAMVELKQKILTSISKLADRDTYQIAVEDLEKTIQSLTPETLPMFLNCLYDSCSDPKPAVKKECLHLLSYVCSLHCDSTAAHLTKIIAQIVKRLKDSDSGVRDACRDTIGALSGIYLKGKEEGTNTGSASLAVGLFVKPLFEAMGEQNKVVQSGASMCMARMVESAASPPVTSFQKLCPRICKLLSNSSFLAKASLLPVVSSLSQVGAIAPQSLESLLESIHDCLGSTDWVTRKAAAETLTALASHSSGLIKEKTDSTITVLETCRFDKIKPVRESVTEALQLWKKISGKYVDGASDDSKLSASEQLGSEKNGEKRSNLADLMKKEASDGSTLSPDSASKGKGCFPEKAVGLLKKKAPVLSDKDFNPEFFQRLERRQSVEVVVPRRCKNNDEEESGLDDLNAMGSSNRLKNTQADDKQVKGRFDGNGSQARTSGDDKAGVVNGKETPGHHAPVSNTDNQSEGSF		17.4
SPR2(1-570)-GFP (domain or fragment, Arabidopsis thaliana, UniProt Q9T041 1-570, looked up) MSTPTTSGSAAKPTRPARSSSLATRSCSNSGSLTSFQAMVELKQKILTSISKLADRDTYQIAVEDLEKTIQSLTPETLPMFLNCLYDSCSDPKPAVKKECLHLLSYVCSLHCDSTAAHLTKIIAQIVKRLKDSDSGVRDACRDTIGALSGIYLKGKEEGTNTGSASLAVGLFVKPLFEAMGEQNKVVQSGASMCMARMVESAASPPVTSFQKLCPRICKLLSNSSFLAKASLLPVVSSLSQVGAIAPQSLESLLESIHDCLGSTDWVTRKAAAETLTALASHSSGLIKEKTDSTITVLETCRFDKIKPVRESVTEALQLWKKISGKYVDGASDDSKLSASEQLGSEKNGEKRSNLADLMKKEASDGSTLSPDSASKGKGCFPEKAVGLLKKKAPVLSDKDFNPEFFQRLERRQSVEVVVPRRCKNNDEEESGLDDLNAMGSSNRLKNTQADDKQVKGRFDGNGSQARTSGDDKAGVVNGKETPGHHAPVSNTDNQSEGSFTSNRGNWSAIQRQLLQLERQQTNLMNMLQEFIGGSHDSMVTLEGRVRGLERIVEDMARDLSISSGRRANL	binds	1.3

Reference: paper doi:10.1101/2021.10.05.463238 (bioRxiv, 2021)
